{
  "source": "paper PMC6131548",
  "about": "(2018)",
  "target": "T1, Tsr2-N (recombinant, binding assays) (S. cerevisiae (yeast), UniProt Q06672 1-152)",
  "T1 chain": "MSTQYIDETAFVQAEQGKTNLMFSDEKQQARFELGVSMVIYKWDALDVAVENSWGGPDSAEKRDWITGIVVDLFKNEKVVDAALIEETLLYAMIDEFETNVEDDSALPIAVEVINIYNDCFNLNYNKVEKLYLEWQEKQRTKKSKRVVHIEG",
  "experiment": "ITC",
  "data": [
    {"binder": "RPRFNRENKVSPADAAKKAL", "note": "[ESS2 peptide]", "values": [
      {"measurement": "Kd", "result": 720, "unit": "nM"}
    ]}
  ]
}
